Assay results as given in paper PMC5645086, “Analysis of the interaction of Plexin-B1 and Plexin-B2 with Rnd family proteins” (PLoS ONE, 2017).
Where a chain is given by its changes, count along the chain named. Each block holds one molecule with its values, some of them ahead of it.

Columns and labels:
Rnd2 (Homo sapiens) = Rnd2 (Homo sapiens) (UniProt P52198); conditions: cited from earlier work
[1] = biological target: T1, Rnd2 GTP-binding domain (residues 2-184) (UniProt P52198 2-184); test: ITC; Plexin-B-RBD (400-600 uM, syringe) titrated into Rnd protein (40-60 uM, cell); 25°C; buffer 2: 50 mM sodium phosphate pH 7.0, 150 mM NaCl, 4 mM MgCl2, 3 mM DTT; independent binding sites model; conditions: both partners purified
T1 construct: source: E. coli BL21 (DE3), purified (Nickel-NTA, TEV cleavage; in some cases ion exchange or size exclusion chromatography); not shown: His6, N-terminal, cleaved
T1 sequence (looked up): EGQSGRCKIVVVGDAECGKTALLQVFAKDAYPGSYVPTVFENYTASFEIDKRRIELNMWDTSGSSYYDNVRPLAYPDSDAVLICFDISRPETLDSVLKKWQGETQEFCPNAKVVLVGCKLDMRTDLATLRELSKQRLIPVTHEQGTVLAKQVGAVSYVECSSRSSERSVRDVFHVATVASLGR

[2] = biological target: T2, Rnd1 GTP-binding domain (residues 1-191) (UniProt Q92730 1-191); test: as above; conditions: both partners purified
T2 construct: source: E. coli Rosetta 2 (DE3), purified (Nickel-NTA, TEV cleavage; in some cases ion exchange or size exclusion chromatography); not shown: His6, N-terminal, cleaved
T2 sequence (looked up): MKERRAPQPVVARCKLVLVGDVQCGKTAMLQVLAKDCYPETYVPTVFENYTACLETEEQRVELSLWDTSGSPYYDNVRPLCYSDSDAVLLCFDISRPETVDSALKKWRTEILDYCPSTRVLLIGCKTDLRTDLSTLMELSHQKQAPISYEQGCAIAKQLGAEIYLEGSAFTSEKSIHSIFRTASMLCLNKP

[3] = biological target: T3, Rnd3 GTP-binding domain (residues 16-200), wild type (UniProt P61587 16-200); test: as above; conditions: both partners purified
T3 construct: source: E. coli BL21 (DE3), purified (Nickel-NTA, TEV cleavage; in some cases ion exchange or size exclusion chromatography); not shown: His6, N-terminal, cleaved
T3 sequence (looked up): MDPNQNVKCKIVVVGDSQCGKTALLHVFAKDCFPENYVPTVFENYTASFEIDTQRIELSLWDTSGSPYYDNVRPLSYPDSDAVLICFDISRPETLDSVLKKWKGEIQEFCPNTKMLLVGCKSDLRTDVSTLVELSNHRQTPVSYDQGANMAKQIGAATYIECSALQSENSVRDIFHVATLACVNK

[4] = biological target: T4, Rnd3-F124Y (GTP-binding domain, residues 16-200) (UniProt P61587 16-200, F124Y); test: as above; conditions: both partners purified
T4 construct: source: E. coli Rosetta 2 (DE3), purified in the same way as wild type Rnd3; not shown: His6, N-terminal, cleaved
T4 sequence (looked up): T3 sequence (looked up) with F109Y

[5] = biological target: T5, Rnd3-Y60A (GTP-binding domain, residues 16-200) (UniProt P61587 16-200, Y60A); test: as above; conditions: both partners purified
T5 construct: source: E. coli BL21 (DE3), purified in the same way as wild type Rnd3; not shown: His6, N-terminal, cleaved
T5 sequence (looked up): T3 sequence (looked up) with Y45A

[6] = biological target: T6, Rnd3-N86R (GTP-binding domain, residues 16-200) (UniProt P61587 16-200, N86R); test: as above; conditions: both partners purified
T6 construct: source: E. coli BL21 (DE3), purified in the same way as wild type Rnd3; not shown: His6, N-terminal, cleaved
T6 sequence (looked up): T3 sequence (looked up) with N71R

[7] = biological target: the molecule itself; test: ITC; control dilution: Plexin-B1-RBD titrated into buffer alone, same conditions as the binding titrations; dimer to monomers
[8] = biological target: T7, Rnd1 GTP-binding domain (residues 1-191) (UniProt Q92730 1-191); test: ITC; Plexin-B1-RBD in the syringe titrated into Rnd1 in the cell; low salt buffer 1: 50 mM sodium phosphate pH 7.0, 50 mM NaCl, 4 mM MgCl2, 3 mM DTT, 25°C; independent binding sites model; mean and SD of 5 fitted binding curves; conditions: both partners purified
T7 construct: Cloned into pETDuet-1; tag removed with TEV protease; source: E. coli Rosetta 2 (DE3), purified (Nickel-NTA chromatography, TEV cleavage; in some cases ion exchange or size exclusion chromatography); not shown: His6, N-terminal, cleaved
T7 sequence (looked up): T2 sequence (looked up)

Rnd2 (Homo sapiens), sequence (P52198 1-224): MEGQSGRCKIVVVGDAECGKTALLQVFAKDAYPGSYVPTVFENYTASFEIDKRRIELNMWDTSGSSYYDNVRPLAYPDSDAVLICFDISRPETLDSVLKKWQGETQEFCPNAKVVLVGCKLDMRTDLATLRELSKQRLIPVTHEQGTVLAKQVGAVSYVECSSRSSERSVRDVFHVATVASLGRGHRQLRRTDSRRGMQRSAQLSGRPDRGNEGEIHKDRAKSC

Molecule: Plexin-B1 RBD (from UniProt O43157)
Kd (Rnd2 (Homo sapiens)): > 20 µM

Kd [1]: 4.93 µM | dH [1]: -4.29 kcal/mol | stoichiometry N [1]: 1.15 | Kd [2]: 11.1 µM | dH [2]: -6.67 kcal/mol | stoichiometry N [2]: 1.05 | Kd [3]: 3.01 µM | dH [3]: -9.33 kcal/mol | stoichiometry N [3]: 1.23 | Kd [4]: 2.97 µM | dH [4]: -7.73 kcal/mol | stoichiometry N [4]: 1.14 | Kd [5]: 3.06 µM | dH [5]: -5.64 kcal/mol | stoichiometry N [5]: 1.06 | Kd [6]: 3.86 µM | dH [6]: -7.37 kcal/mol | stoichiometry N [6]: 1.13
B1: Plexin-B2-RBD (Rho-binding domain of Plexin-B2, residues 1452-1562) (domain or fragment, UniProt O15031 1452-1562, looked up)
chain: GLLGDDVEYAPLTVSVIVQDEGVDAIPVKVLNCDTISQVKEKIIDQVYRGQPCSCWPRPDSVVLEWRPGSTAQILSDLDLTSQREGRWKRVNTLMHYNVRDGATLILSKVG
notes: Vector pETDuet-1; tag removed with TEV protease; source: E. coli BL21 (DE3), purified (Nickel-NTA, TEV cleavage; in some cases ion exchange or size exclusion chromatography); not shown: His6, N-terminal, cleaved

Kd [1]: 7.64 µM | dH [1]: -7.33 kcal/mol | stoichiometry N [1]: 1.16 | Kd [2]: 2.37 µM | dH [2]: -15.6 kcal/mol | stoichiometry N [2]: 0.85 | Kd [3]: 6.62 µM | dH [3]: -9.73 kcal/mol | stoichiometry N [3]: 1.07 | Kd [4]: 4.6 µM | dH [4]: -8.65 kcal/mol | stoichiometry N [4]: 1.04 | Kd [5]: 7.26 µM | dH [5]: -2.76 kcal/mol | stoichiometry N [5]: 1.02 | Kd [6]: 8.12 µM | dH [6]: -5.53 kcal/mol | stoichiometry N [6]: 0.91
B2: Plexin-B1-RBD (Rho-binding domain of Plexin-B1, residues 1746-1851), histidine-tagged (domain or fragment, UniProt O43157 1746-1851, looked up)
chain: YRPLTLNALLAVGPGAGEAQGVPVKVLDCDTISQAKEKMLDQLYKGVPLTQRPDPRTLDVEWRSGVAGHLILSDEDVTSEVQGLWRRLNTLQHYKVPDGATVALVP
notes: A TEV protease site lies between the hexahistidine tag and the domain; Vector pETDuet-1; also called HisPlexin-B1; Plexin-B-RBD; source: E. coli BL21 (DE3), purified (Nickel-NTA; in some cases ion exchange or size exclusion chromatography); not shown: His6, N-terminal, kept
binding result [7]: binds

Kd [8]: 5.37 µM | stoichiometry N [8]: 0.94
B3: Plexin-B1-RBD (Rho-binding domain of Plexin-B1, residues 1746-1851), histidine-tagged (domain or fragment, UniProt O43157 1746-1851, looked up)
chain: B2 chain
notes: A TEV protease cleavage site lies between the hexahistidine tag and the domain; removal of the tag was inefficient for Plexin-B1-RBD, so the tag was kept; Cloned into pETDuet-1; also called HisPlexin-B1; source: E. coli BL21 (DE3), purified (Nickel-NTA chromatography; in some cases ion exchange or size exclusion chromatography); not shown: His6, N-terminal, kept
